Test results from patent US20220098307A1 (WUHAN YZY BIOPHARMA, published 2022).
Substitutions are numbered along the chain they refer to. In names and notes the source's numbering stands. Read-outs that look alike come from different tables or passages of the source.

B1: CEA-M3-NA (bispecific antibody, human IgG1, kappa, N297A)
fusion heavy: QVQLVQSGSELKKPGASVKVSCKASGYTFTVFGMNWVRQAPGQGLEWMGWINTKTGEATYVEEFKGRFVFSLDTSVSTAYLQISSLKADDTAVYYCARWDFYDYVEAMDYWGQGTTVTVSSASTKGPSVFPLAPSSKSTSGGTAALGCLVKDYFPEPVTVSWNSGALTSGVHTFPAVLQSSGLYSLSSVVTVPSSSLGTQTYICNVNHKPSNTKVDKKVEPKSCGGGGSGGGGSQVQLVESGGGVVQPGRSLRLSCAASGFTFSTYAMNWVRQAPGKGLEWVARIRSKYNNYATYYADSVKDRFTISRDDSKNTLYLQMNSLRAEDTAVYYCARHGNFGNSYVSWFAYWGQGTLVTVSSASVAAPSVFIFPPSDEQLKSGTASVVCLLNNFYPREAKVQWKVDNALQSGNSQESVTEQDSKDSTYSLSSTLTLSKADYEKHKVYACEVTHQGLSSPVTKSFNRGECDKTHTCPPCPAPELLGGPSVFLFPPKPKDTLMISRTPEVTCVVVDVSHEDPEVKFNWYVDGVEVHNAKTKPREEQYASTYRVVSVLTVLHQDWLNGKEYKCKVSNKALPAPIEKTISKAKGQPREPQVYTLPPCRDELTKNQVSLWCLVKGFYPSDIAVEWESNGQPENNYKTTPPVLDSDGSFFLYSKLTVDKSRWQQGNVFSCSVMHEALHNHYTQKSLSLSPGK
cross light: QTVVTQEPSLTVSPGGTVTLTCRSSTGAVTTSNYANWVQQKPGQAPRGLIGGTNKRAPGVPARFSGSLLGGKAALTLSGVQPEDEAEYYCALWYSNLWVFGGGTKVEIKSSASTKGPSVFPLAPSSKSTSGGTAALGCLVKDYFPEPVTVSWNSGALTSGVHTFPAVLQSSGLYSLSSVVTVPSSSLGTQTYICNVNHKPSNTKVDKKVEPKSC
heavy: QVQLVQSGSELKKPGASVKVSCKASGYTFTVFGMNWVRQAPGQGLEWMGWINTKTGEATYVEEFKGRFVFSLDTSVSTAYLQISSLKADDTAVYYCARWDFYDYVEAMDYWGQGTTVTVSSASTKGPSVFPLAPSSKSTSGGTAALGCLVKDYFPEPVTVSWNSGALTSGVHTFPAVLQSSGLYSLSSVVTVPSSSLGTQTYICNVNHKPSNTKVDKKVEPKSCDKTHTCPPCPAPELLGGPSVFLFPPKPKDTLMISRTPEVTCVVVDVSHEDPEVKFNWYVDGVEVHNAKTKPREEQYASTYRVVSVLTVLHQDWLNGKEYKCKVSNKALPAPIEKTISKAKGQPREPQVCTLPPSRDELTKNQVSLSCAVKGFYPSDIAVEWESNGQPENNYKTTPPVLDSDGSFFLVSKLTVDKSRWQQGNVFSCSVMHEALHNRFTQKSLSLSPGK
light: DIQMTQSPSSLSASVGDRVTITCKASQNVGTNVAWYQQKPGKAPKLLIYSASYRYSGVPSRFSGSGSGTDFTFTISSLQPEDIATYYCHQYYTYPLFTFGQGTKVEIKRTVAAPSVFIFPPSDEQLKSGTASVVCLLNNFYPREAKVQWKVDNALQSGNSQESVTEQDSKDSTYSLSSTLTLSKADYEKHKVYACEVTHQGLSSPVTKSFNRGEC
notes: structure 3; CEA x CD3; CH2 N297A; copies: 1 + 1 + 1 + 2
B2: M3IC-WT (bispecific antibody)
fusion heavy: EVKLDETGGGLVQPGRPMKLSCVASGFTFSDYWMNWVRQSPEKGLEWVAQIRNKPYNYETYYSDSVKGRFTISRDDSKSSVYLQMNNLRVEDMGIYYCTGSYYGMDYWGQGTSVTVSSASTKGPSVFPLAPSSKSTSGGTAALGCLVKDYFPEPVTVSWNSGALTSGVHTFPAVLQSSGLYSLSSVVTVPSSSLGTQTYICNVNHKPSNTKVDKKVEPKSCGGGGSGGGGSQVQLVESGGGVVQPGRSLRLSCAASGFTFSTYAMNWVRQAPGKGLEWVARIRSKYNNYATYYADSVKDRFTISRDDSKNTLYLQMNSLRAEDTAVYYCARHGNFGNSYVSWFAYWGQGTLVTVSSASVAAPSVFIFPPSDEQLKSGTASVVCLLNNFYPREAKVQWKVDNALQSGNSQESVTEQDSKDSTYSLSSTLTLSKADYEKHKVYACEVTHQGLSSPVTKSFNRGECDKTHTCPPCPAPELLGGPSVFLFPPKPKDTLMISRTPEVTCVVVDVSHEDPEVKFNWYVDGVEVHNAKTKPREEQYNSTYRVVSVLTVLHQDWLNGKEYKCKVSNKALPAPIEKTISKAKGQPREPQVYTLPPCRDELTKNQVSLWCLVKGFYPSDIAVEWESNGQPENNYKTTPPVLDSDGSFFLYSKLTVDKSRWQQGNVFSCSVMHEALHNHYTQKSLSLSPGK
cross light: B1 cross light
heavy: EVKLDETGGGLVQPGRPMKLSCVASGFTFSDYWMNWVRQSPEKGLEWVAQIRNKPYNYETYYSDSVKGRFTISRDDSKSSVYLQMNNLRVEDMGIYYCTGSYYGMDYWGQGTSVTVSSASTKGPSVFPLAPSSKSTSGGTAALGCLVKDYFPEPVTVSWNSGALTSGVHTFPAVLQSSGLYSLSSVVTVPSSSLGTQTYICNVNHKPSNTKVDKKVEPKSCDKTHTCPPCPAPELLGGPSVFLFPPKPKDTLMISRTPEVTCVVVDVSHEDPEVKFNWYVDGVEVHNAKTKPREEQYNSTYRVVSVLTVLHQDWLNGKEYKCKVSNKALPAPIEKTISKAKGQPREPQVCTLPPSRDELTKNQVSLSCAVKGFYPSDIAVEWESNGQPENNYKTTPPVLDSDGSFFLVSKLTVDKSRWQQGNVFSCSVMHEALHNRFTQKSLSLSPGK
light: DVVMTQTPLSLPVSLGDQASISCRSSQSLVHSNGNTYLRWYLQKPGQSPKVLIYKVSNRFSGVPDRFSGSGSGTDFTLKISRVEAEDLGVYFCSQSTHVPWTFGGGTKLEIKRTVAAPSVFIFPPSDEQLKSGTASVVCLLNNFYPREAKVQWKVDNALQSGNSQESVTEQDSKDSTYSLSSTLTLSKADYEKHKVYACEVTHQGLSSPVTKSFNRGEC
notes: structure 3 isotype control; CH2 WT; copies: 1 + 1 + 1 + 2
B3: M3IC-NA (bispecific antibody)
fusion heavy: EVKLDETGGGLVQPGRPMKLSCVASGFTFSDYWMNWVRQSPEKGLEWVAQIRNKPYNYETYYSDSVKGRFTISRDDSKSSVYLQMNNLRVEDMGIYYCTGSYYGMDYWGQGTSVTVSSASTKGPSVFPLAPSSKSTSGGTAALGCLVKDYFPEPVTVSWNSGALTSGVHTFPAVLQSSGLYSLSSVVTVPSSSLGTQTYICNVNHKPSNTKVDKKVEPKSCGGGGSGGGGSQVQLVESGGGVVQPGRSLRLSCAASGFTFSTYAMNWVRQAPGKGLEWVARIRSKYNNYATYYADSVKDRFTISRDDSKNTLYLQMNSLRAEDTAVYYCARHGNFGNSYVSWFAYWGQGTLVTVSSASVAAPSVFIFPPSDEQLKSGTASVVCLLNNFYPREAKVQWKVDNALQSGNSQESVTEQDSKDSTYSLSSTLTLSKADYEKHKVYACEVTHQGLSSPVTKSFNRGECDKTHTCPPCPAPELLGGPSVFLFPPKPKDTLMISRTPEVTCVVVDVSHEDPEVKFNWYVDGVEVHNAKTKPREEQYASTYRVVSVLTVLHQDWLNGKEYKCKVSNKALPAPIEKTISKAKGQPREPQVYTLPPCRDELTKNQVSLWCLVKGFYPSDIAVEWESNGQPENNYKTTPPVLDSDGSFFLYSKLTVDKSRWQQGNVFSCSVMHEALHNHYTQKSLSLSPGK
cross light: B1 cross light
heavy: B2 heavy with N298A
light: B2 light
notes: structure 3 isotype control; CH2 N297A; copies: 1 + 1 + 1 + 2
B4: M3IC-FES (bispecific antibody)
fusion heavy: B3 fusion heavy with L477F, L478E, A540N, P574S
cross light: B1 cross light
heavy: B2 heavy with L235F, L236E, P332S
light: B2 light
notes: structure 3 isotype control; CH2 FES; copies: 1 + 1 + 1 + 2
B5: M3IC-AAG (bispecific antibody)
fusion heavy: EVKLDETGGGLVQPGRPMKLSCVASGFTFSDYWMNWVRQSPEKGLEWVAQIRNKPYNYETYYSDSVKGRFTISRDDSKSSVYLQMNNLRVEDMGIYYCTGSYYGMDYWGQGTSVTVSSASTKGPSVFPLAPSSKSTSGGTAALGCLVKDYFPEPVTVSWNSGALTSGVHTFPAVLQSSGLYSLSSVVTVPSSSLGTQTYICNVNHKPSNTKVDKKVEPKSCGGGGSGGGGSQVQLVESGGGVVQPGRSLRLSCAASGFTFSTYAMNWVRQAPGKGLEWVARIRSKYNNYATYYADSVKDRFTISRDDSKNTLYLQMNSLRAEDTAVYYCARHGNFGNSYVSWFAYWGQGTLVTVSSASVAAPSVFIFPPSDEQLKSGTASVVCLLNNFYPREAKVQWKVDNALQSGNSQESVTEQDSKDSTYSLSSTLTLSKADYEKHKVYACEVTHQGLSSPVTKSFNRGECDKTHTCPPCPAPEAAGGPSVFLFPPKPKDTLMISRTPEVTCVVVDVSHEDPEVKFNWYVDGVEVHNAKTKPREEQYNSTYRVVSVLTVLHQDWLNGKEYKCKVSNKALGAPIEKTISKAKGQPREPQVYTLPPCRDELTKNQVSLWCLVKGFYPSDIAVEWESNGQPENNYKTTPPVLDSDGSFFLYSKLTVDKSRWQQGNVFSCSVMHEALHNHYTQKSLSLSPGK
cross light: B1 cross light
heavy: B2 heavy with L235A, L236A, P330G
light: B2 light
notes: structure 3 isotype control; CH2 AAG; copies: 1 + 1 + 1 + 2
B6: CD38-M1-FES-3 (bispecific antibody)
chain: not shown
heavy: not shown
light: DIELTQPPSVSVAPGQTARISCSGDNLRHYYVYWYQQKPGQAPVLVIYGDSKRPSGIPERFSGSNSGNTATLTISGTQAEDEADYYCQTYTGGASLVFGGGTKLTVLGQGQPKAAPSVTLFPPSSEELQANKATLVCLISDFYPGAVTVAWKADSSPVKAGVETTTPSKQSNNKYAASSYLSLTPEQWKSHRSYSCQVTHEGSTVEKTVAPTECS
notes: structure 1; CD38 (MOR) x CD3 (I2C); CH2 FES; CL is Lc3

Legend:
Human CD3ε = target: T1, Human CD3ε (human, UniProt P07766 23-126); experiment: flow cytometry, human T cells
T1 construct: CD3 on T cells isolated from human whole blood
Method in brief: (§1)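 For cell-surface binding, T cells served for the CD3 arm and antigen-positive tumor cells (e.g. MM.1S or RPMI 8226 for CD38) for the tumor arm.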

Monkey CD3 [1] = target: T2, Monkey CD3 (monkey); experiment: flow cytometry, monkey T cells
T2 construct: whole, on cells; also called CD3 of monkey CD3 positive T cells

human CEA [2] = target: T3, human CEA (human, UniProt P06731 35-685); experiment: flow cytometry, human tumor cells (CEA+)
T3 sequence: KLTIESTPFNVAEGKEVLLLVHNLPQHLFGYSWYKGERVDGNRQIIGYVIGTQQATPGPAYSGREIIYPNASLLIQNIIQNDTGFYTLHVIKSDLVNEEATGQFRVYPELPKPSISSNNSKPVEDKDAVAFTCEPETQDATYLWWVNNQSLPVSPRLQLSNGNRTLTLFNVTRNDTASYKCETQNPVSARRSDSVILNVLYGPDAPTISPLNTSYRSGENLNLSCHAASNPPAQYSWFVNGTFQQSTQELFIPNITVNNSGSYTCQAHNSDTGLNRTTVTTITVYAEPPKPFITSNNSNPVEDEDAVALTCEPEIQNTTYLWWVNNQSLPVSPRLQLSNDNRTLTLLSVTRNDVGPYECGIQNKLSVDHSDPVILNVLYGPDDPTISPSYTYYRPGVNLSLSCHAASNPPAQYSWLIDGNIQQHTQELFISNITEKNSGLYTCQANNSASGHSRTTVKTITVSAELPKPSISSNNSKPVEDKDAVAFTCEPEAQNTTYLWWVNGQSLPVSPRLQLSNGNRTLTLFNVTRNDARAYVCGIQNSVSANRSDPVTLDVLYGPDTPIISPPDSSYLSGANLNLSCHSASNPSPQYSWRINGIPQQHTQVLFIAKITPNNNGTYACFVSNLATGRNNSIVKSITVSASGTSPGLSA
Method in brief: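 Cells expressing the target antigen (CD38+ MM.1S or RPMI 8226 for CD38; isolated T cells for CD3) were plated at 2×10⁵ per well in 1% FBS-PBS on ice. Antibody was titrated 3-fold over 11 points from 3000 nM and incubated 2 h at 4° C with shaking, followed by PE anti-human IgG Fc.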

human CEA [3] = target: T3, human CEA; experiment: flow cytometry, human tumor cells (table of the CEA series)
Method in brief: as §1

Human CD38 = Human CD38 (human, UniProt P28907 43-300); experiment: flow cytometry, MM.1S or RPMI 8226 cells
From the text: 1) Cell preparation: T cells isolated from CD3-positive human whole blood were used for a CD3 end affinity detection of multifunctional antibody molecule; positive tumor cells of corresponding antigen were used for detecting affinity of tumor antigen; for example, CD38-positive MM. 1S cells (purchased from the Cell Resource Center of Shanghai Institutes for Biological Sciences, Chinese Academy of Sciences) or RPMI 8226 cells (purchased from the Cell Resource Center of Shanghai Institutes for Biological Sciences, Chinese Academy of Sciences) were used for CD38 antigen detection, and PD-L1 positive H358 cells (purchased from the Cell Resource Center of Shanghai Institutes for Biological Sciences, Chinese Academy of Sciences) were used for PD-L1 antigen detection, and so on. The cells were resuspended with 1% FBS-PBS, adjusted to a density of 4×10⁶/ml, and 50 μl of cells were taken from each well, and then plated at 2×10⁵ per well. Cell plating was operated on ice
2) Addition of the antibody: according to the experimental design, the antibody was diluted gradually, and dilution of antibody was operated on ice. For example, the initial concentration of antibody for dilution was 3000 nM, and the antibody was diluted by 3 times with 11 concentration gradients. The diluted antibody was added to a cell well at 50 μl per well, mixed well, and shaked and incubated at 4° C. 1100 rpm/min for 2 h; after washing, the cells were resuspend in 1% FBS-PBS, and a diluted secondary antibody PE anti-human IgG FC (Biolegend, 409304) was added with a final concentration of 8 ug/ml and a volume of 50 μl/well. At the same time, a well only added with cells and secondary antibody was set as a control, the components were mixed well, and incubated under shaking at 1100 rpm/min at 4° C. for 1 h;
5) Data analysis: the data was analyzed by a flow analysis software FlowJo 7.6 thereby obtaining an average fluorescence intensity of the specific antibody concentration, plotted by a Graphpad Prism 5 with the antibody concentration (nM) as an abscissa and the average fluorescence intensity as an ordinate; the EC50 value was calculated by the method of One site—Specific binding, and the EC50 value indicated the cell affinity of the antibody to the corresponding target antigen.

Monkey CD3 [4] = target: T2, Monkey CD3; experiment: flow cytometry, monkey T cells; remark: listed apart in the source

Row | Binder | EC50 (Human CD3ε) [nM] | EC50 (Monkey CD3 [1]) [nM] | EC50 (human CEA [2]) [nM] | binding result (human CEA [3]) | EC50 (Human CD38) [nM] | EC50 (Monkey CD3 [4]) [nM]
1 | B1 | 688 | 798 | 32.1 | – | – | –
2 | B2 | 637 | 709 | – | no binding | – | –
3 | B3 | 739 | 935 | – | no binding | – | –
4 | B4 | 662 | 671 | – | no binding | – | –
5 | B5 | 606 | 659 | – | no binding | – | –
6 | B6 | – | – | – | – | 11.1 | 34
